Test results published in patent US20190240295A1.

How the values were obtained:
[1] = target: LRP1 (alpha2-macroglobulin receptor/CD91) receptor (BioMac) (UniProt Q07954); assay: SPR (Biacore), LRP1 immobilized on CM4 chip; mean KD of lots A-C
[2] = target: LRP1 (alpha2-macroglobulin receptor/CD91) receptor (BioMac) (UniProt Q07954); assay: SPR (Biacore), LRP1 immobilized on CM4 chip; mean KD of lots D-F
[3] = target: Plasma-derived VWF (pdVWF, Diagnostica Stago) (UniProt P04275); assay: SPR (Biacore), pdVWF immobilized on CM5 chip; mean KD of lots A-C
[4] = target: Plasma-derived VWF (pdVWF, Diagnostica Stago) (UniProt P04275); assay: SPR (Biacore), pdVWF immobilized on CM5 chip; mean KD of lots D-F
[5] = target: Plasma-derived VWF (pdVWF, Diagnostica Stago) (UniProt P04275); assay: SPR (Biacore), pdVWF immobilized on CM5 chip; mean KD of lots G-I
[6] = target: LRP1 (alpha2-macroglobulin receptor/CD91) receptor (BioMac) (UniProt Q07954); assay: SPR (Biacore), LRP1 immobilized on CM4 chip; mean KD of lots K-N
[7] = target: Plasma-derived VWF (pdVWF, Diagnostica Stago) (UniProt P04275); assay: SPR (Biacore), pdVWF immobilized on CM5 chip; mean KD of lots K-N

Sequence of UniProt Q07954 (Q07954 20-4544 limits assumed): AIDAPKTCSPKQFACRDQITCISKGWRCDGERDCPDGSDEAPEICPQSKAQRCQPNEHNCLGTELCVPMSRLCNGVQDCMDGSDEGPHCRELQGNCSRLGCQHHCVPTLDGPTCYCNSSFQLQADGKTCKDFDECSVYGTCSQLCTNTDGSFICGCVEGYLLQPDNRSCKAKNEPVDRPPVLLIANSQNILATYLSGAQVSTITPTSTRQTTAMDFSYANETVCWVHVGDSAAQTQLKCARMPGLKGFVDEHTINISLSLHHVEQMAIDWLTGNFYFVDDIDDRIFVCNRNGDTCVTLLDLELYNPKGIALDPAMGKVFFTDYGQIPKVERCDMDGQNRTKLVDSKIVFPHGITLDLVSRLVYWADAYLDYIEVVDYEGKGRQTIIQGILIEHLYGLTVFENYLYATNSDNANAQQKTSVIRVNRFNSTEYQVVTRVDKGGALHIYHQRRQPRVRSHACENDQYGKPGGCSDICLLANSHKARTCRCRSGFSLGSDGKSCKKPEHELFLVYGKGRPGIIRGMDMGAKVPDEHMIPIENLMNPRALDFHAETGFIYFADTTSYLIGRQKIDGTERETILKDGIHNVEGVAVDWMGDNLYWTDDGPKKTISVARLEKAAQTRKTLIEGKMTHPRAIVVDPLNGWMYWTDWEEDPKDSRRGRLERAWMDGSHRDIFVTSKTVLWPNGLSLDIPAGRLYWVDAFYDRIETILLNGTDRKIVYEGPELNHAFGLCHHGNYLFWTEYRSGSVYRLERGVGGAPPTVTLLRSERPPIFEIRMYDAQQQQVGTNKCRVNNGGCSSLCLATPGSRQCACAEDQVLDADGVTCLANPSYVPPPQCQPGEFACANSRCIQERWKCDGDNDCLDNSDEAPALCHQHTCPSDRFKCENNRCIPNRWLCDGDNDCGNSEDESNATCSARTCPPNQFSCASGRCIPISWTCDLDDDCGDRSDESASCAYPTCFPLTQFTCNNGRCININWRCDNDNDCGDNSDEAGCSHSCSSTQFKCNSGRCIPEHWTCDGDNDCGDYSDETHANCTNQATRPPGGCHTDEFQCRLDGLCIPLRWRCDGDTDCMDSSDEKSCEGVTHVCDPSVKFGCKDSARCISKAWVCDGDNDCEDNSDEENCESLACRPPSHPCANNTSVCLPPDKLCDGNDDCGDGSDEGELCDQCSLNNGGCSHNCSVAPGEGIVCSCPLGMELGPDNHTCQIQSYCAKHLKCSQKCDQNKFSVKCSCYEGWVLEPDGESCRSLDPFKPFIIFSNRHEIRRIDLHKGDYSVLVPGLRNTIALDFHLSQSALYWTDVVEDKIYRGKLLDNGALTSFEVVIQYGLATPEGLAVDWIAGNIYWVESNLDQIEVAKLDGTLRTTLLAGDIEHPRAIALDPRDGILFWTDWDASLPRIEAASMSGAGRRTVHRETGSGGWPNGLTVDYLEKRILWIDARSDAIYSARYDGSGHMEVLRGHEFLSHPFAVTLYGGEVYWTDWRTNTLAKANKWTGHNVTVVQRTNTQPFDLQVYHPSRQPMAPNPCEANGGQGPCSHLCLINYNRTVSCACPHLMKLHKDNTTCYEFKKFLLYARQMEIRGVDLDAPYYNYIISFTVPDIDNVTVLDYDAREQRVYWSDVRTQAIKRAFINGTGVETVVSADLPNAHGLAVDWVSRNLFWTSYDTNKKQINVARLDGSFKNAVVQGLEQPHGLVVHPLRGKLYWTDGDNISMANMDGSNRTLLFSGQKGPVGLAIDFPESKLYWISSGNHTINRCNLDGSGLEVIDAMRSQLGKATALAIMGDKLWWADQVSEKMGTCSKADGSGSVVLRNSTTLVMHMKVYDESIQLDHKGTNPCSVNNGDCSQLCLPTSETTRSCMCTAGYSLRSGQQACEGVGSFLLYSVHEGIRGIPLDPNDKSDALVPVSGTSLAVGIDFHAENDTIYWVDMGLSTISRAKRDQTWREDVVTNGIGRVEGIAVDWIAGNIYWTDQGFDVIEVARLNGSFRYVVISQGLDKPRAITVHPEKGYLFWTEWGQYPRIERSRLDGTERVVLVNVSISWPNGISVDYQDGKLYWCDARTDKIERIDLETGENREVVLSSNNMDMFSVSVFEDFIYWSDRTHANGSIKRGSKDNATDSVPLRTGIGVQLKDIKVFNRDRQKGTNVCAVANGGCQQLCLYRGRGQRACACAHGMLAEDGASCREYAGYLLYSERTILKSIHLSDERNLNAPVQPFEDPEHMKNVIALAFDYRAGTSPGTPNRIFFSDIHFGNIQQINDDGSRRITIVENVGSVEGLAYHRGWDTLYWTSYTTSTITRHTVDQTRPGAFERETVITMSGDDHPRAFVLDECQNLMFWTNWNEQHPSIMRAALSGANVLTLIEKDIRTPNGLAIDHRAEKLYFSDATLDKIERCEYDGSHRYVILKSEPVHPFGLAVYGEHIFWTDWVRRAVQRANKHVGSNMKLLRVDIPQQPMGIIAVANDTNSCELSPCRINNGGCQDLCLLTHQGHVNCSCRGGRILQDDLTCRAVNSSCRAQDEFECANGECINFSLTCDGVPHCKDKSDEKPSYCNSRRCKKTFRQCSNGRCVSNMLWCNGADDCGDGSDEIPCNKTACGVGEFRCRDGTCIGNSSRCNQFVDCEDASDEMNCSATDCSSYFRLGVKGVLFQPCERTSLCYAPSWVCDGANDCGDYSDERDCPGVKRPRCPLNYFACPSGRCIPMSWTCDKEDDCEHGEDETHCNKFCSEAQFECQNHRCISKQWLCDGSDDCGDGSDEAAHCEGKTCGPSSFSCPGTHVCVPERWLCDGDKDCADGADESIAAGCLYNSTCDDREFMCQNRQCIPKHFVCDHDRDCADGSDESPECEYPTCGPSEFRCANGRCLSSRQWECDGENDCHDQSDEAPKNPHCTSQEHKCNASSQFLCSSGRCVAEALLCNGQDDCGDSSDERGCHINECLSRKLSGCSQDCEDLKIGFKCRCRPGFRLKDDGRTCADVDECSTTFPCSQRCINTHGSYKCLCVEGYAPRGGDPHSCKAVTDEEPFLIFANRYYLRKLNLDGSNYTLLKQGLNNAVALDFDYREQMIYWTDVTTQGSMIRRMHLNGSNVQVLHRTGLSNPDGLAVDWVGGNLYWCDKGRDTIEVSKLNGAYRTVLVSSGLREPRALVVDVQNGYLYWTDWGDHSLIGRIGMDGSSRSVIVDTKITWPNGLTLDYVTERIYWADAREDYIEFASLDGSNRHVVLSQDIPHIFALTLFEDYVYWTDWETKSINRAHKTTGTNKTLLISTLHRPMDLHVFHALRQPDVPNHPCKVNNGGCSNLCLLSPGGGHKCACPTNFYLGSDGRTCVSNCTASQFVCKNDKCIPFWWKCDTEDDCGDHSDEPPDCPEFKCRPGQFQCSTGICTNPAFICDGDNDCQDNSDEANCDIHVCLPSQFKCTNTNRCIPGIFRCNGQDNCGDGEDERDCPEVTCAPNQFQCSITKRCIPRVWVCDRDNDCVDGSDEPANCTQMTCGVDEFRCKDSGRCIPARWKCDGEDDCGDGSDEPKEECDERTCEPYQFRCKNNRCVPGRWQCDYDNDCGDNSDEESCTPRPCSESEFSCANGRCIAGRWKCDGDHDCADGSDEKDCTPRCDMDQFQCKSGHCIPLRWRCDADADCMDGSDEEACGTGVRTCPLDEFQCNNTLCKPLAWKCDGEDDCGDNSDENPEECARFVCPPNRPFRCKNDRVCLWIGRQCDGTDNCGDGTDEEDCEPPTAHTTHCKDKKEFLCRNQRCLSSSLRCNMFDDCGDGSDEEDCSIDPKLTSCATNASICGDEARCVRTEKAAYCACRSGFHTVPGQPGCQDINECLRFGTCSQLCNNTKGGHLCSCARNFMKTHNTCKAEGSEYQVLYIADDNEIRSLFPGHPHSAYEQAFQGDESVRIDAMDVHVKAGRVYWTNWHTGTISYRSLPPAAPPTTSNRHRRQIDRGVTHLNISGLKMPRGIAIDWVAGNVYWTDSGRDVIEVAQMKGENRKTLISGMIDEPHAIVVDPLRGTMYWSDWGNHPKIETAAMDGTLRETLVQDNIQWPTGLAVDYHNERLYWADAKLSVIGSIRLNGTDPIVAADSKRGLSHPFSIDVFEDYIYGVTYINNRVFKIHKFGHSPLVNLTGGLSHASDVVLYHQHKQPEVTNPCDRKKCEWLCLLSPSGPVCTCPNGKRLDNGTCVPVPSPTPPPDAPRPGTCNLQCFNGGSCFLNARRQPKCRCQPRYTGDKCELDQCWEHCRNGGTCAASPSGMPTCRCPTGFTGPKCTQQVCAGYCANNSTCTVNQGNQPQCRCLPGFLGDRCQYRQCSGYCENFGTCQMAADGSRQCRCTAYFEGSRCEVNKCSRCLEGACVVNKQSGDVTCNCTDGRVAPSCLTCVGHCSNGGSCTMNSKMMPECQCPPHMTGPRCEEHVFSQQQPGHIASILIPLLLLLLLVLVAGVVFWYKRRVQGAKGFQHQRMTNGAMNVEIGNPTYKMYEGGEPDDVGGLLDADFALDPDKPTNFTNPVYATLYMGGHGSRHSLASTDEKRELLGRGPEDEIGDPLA

Substance | Kd [1] | Kd [2] | Kd [3] | Kd [4] | Kd [5] | Kd [6] | Kd [7]
PSA-rFVIII (polysialylated recombinant Factor VIII) (from UniProt P00451 20-2351) | 19000 pM | 32000 pM | 280 pM | 280 pM | 310 pM |  | 
rebuffered rFVIII (unmodified recombinant Factor VIII) (from UniProt P00451 20-2351) |  |  |  |  |  | 22300 pM | 320 pM
